Results: article PMC3815138, “Dynamic Interplay between the Periplasmic and Transmembrane Domains of GspL and GspM in the Type II Secretion System” (PLoS ONE, 2013)

Legend:
[1] = biological target: T1, GST-OutC (Dickeya dadantii, UniProt Q01564 1-272); assay: pull-down; GST-Out derivatives immobilized on Glutathione Sepharose as baits; His-OutC purified by nickel affinity as prey, incubated 1 h; 1% Triton X-100, 15°C; five washes; immunoblot; conditions: both partners purified
T1 construct: OutC (GspC), type II secretion system of Dickeya dadantii; also called full-length OutC carrying a GST-tag; source: E. coli BL21(DE3), pGEX-6P-3 plasmid; immobilized on Glutathione Sepharose

[2] = biological target: T2, GST-OutL (Dickeya dadantii, UniProt E0SLF6 1-400); assay: as above; conditions: both partners purified
T2 construct: OutL (GspL), type II secretion system of Dickeya dadantii; also called full-length OutL carrying a GST-tag; source: E. coli BL21(DE3), pGEX-6P-3 plasmid; immobilized on Glutathione Sepharose
T2 sequence: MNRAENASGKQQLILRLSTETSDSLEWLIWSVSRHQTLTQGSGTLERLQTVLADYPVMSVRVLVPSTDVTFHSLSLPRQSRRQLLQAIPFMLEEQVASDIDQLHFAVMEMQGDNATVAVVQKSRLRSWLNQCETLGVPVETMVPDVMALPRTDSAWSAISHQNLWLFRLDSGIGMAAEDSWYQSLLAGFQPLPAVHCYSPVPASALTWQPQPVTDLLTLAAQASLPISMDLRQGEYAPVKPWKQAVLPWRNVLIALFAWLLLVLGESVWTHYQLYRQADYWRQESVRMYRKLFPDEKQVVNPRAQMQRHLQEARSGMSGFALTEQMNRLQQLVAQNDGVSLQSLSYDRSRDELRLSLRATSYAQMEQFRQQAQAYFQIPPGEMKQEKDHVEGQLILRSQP

B1: His-OutC (natural protein)
chain: not shown
notes: OutC (GspC), bitopic inner membrane component of the type II secretion system of Dickeya dadantii; also called GspC; full-length OutC; source: E. coli BL21(DE3), pET20b(+) plasmid
B1: binds [1]; binds [2].
